These results are taken from CN115073591A (INST MILITARY MEDICINE ACADEMY MILITARY SCIENCES PLA, dated 2022).

The target of the assay is T1, 人hCD2(His标签)蛋白 (human, UniProt P06729 25-209).
T1 construct: not shown: His tag
T1 sequence: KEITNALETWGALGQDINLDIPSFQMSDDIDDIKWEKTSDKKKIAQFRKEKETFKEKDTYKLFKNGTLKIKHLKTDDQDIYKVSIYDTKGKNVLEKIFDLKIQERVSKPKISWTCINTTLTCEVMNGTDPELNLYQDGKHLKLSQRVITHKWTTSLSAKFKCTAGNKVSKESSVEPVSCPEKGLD
Description: ELISA, plate coated with hCD2-His at 2 μg/mL. For orientation: ELISA stands for enzyme-linked immunosorbent assay.

B1: 单克隆抗体8G1 (antibody, V domains shown)
VH: EVLLVESGGGLVKPGGSLKLSCAASGFTFSSYAMSWVRQTPEKRLEWVATITNGGSYNYYPDSVKGRFTISRDNAKNTLYLQMSSLRSEDTAIYYCARSNPYYFDYWGQGTTLTVSP
VL: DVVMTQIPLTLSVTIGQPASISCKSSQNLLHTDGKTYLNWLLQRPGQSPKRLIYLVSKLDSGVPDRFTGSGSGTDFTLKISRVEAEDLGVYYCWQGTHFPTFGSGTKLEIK
With B1, the binding result is given as “no binding (tested: 0.1μg/mL 8G1)”.
